Laboratory results published in the Human Domainome abundance scans (Beltran et al. 2025).
± gives the uncertainty stated by the source.

B1: Segment polarity protein dishevelled homolog DVL-3, residues 2 to 81; numbered along this chain, Q92997 (parent)
chain: GETKIIYHLDGQETPYLVKLPLPAERVTLADFKGVLQRPSYKFFFKSMDDDFGVVKEEISDDNAKLPCFNGRVVSWLVSA

Variants of: B1
Assay: abundance fitness (aPCA) (normalised: wild type 0, dead -1); higher = more abundant; growth selection in yeast, the domain comes from the species named
Conditions: Homo sapiens

In order of rising abundance fitness:
1. L77A  -1.11 ± 0.2
2. P67I  -1.04 ± 0.28
3. P67K  -1.02 ± 0.22
4. V73K  -1.01 ± 0.3
5. P67W  -1.01 ± 0.17
6. V74P  -0.981 ± 0.27
7. S75K  -0.967 ± 0.29
8. V74K  -0.953 ± 0.24
9. P67C  -0.948 ± 0.21
10. P67L  -0.94 ± 0.13
11. L77P  -0.929 ± 0.28
12. N70Y  -0.915 ± 0.15
13. L77E  -0.915 ± 0.24
14. L77Y  -0.911 ± 0.14
15. V73Y  -0.909 ± 0.15
16. L77R  -0.903 ± 0.14
17. S75N  -0.899 ± 0.12
18. P67H  -0.874 ± 0.34
19. S79Y  -0.864 ± 0.18
20. L77F  -0.855 ± 0.14
21. P67A  -0.841 ± 0.12
22. L77S  -0.831 ± 0.11
23. S75F  -0.793 ± 0.12
24. V73E  -0.786 ± 0.24
25. S75E  -0.782 ± 0.22
26. V74Q  -0.777 ± 0.31
27. V73M  -0.767 ± 0.26
28. N70L  -0.757 ± 0.13
29. L77N  -0.751 ± 0.12
30. P67V  -0.728 ± 0.097
31. S75M  -0.726 ± 0.2
32. S75D  -0.723 ± 0.11
33. V74G  -0.716 ± 0.1
34. S79W  -0.71 ± 0.11
35. V73F  -0.684 ± 0.089
36. S79V  -0.682 ± 0.087
37. V73G  -0.681 ± 0.099
38. P67Q  -0.676 ± 0.21
39. S79L  -0.67 ± 0.092
40. S75Y  -0.669 ± 0.1
41. P67G  -0.659 ± 0.085
42. V74C  -0.658 ± 0.12
43. P67F  -0.657 ± 0.19
44. S79I  -0.652 ± 0.27
45. P67S  -0.646 ± 0.094
46. N70W  -0.634 ± 0.23
47. N70P  -0.628 ± 0.14
48. P67D  -0.623 ± 0.15
49. V73S  -0.618 ± 0.088
50. S75R  -0.606 ± 0.1
51. S75W  -0.603 ± 0.21
52. P67M  -0.603 ± 0.13
53. N70A  -0.602 ± 0.12
54. P67Y  -0.602 ± 0.18
55. S75H  -0.6 ± 0.15
56. N70V  -0.593 ± 0.077
57. V74D  -0.593 ± 0.12
58. V73R  -0.592 ± 0.12
59. S75P  -0.59 ± 0.16
60. V73W  -0.589 ± 0.18
61. V74A  -0.585 ± 0.15
62. V73H  -0.573 ± 0.12
63. L77G  -0.572 ± 0.11
64. V73N  -0.569 ± 0.11
65. N70S  -0.568 ± 0.083
66. V73L  -0.56 ± 0.1
67. S79M  -0.556 ± 0.1
68. P67R  -0.544 ± 0.074
69. L77H  -0.536 ± 0.18
70. S75T  -0.519 ± 0.11
71. V73A  -0.511 ± 0.12
72. V74N  -0.511 ± 0.092
73. S79F  -0.504 ± 0.16
74. V73D  -0.501 ± 0.1
75. V73Q  -0.477 ± 0.46
76. L77D  -0.471 ± 0.1
77. N70C  -0.467 ± 0.097
78. N70T  -0.466 ± 0.11
79. S79H  -0.466 ± 0.16
80. S75L  -0.463 ± 0.093
81. S75I  -0.459 ± 0.089
82. N70F  -0.449 ± 0.077
83. V74R  -0.446 ± 0.1
84. P67E  -0.432 ± 0.095
85. V74L  -0.427 ± 0.088
86. L77M  -0.395 ± 0.21
87. N70M  -0.374 ± 0.17
88. L77I  -0.358 ± 0.088
89. V73C  -0.347 ± 0.085
90. N70Q  -0.341 ± 0.19
91. S79R  -0.31 ± 0.055
92. L77C  -0.29 ± 0.081
93. S79G  -0.287 ± 0.054
94. L77K  -0.261 ± 0.13
95. N70R  -0.249 ± 0.077
96. V74H  -0.249 ± 0.083
97. S79Q  -0.248 ± 0.098
98. L77T  -0.243 ± 0.099
99. V74W  -0.243 ± 0.12
100. S79C  -0.228 ± 0.083
101. S75G  -0.221 ± 0.063
102. S79A  -0.206 ± 0.062
103. S79K  -0.204 ± 0.076
104. V74M  -0.198 ± 0.14
105. V78M  -0.19 ± 0.16
106. S79T  -0.179 ± 0.071
107. N70H  -0.165 ± 0.08
108. S75V  -0.161 ± 0.058
109. V74F  -0.066 ± 0.056
110. L77V  -0.064 ± 0.065
111. N70E  -0.001 ± 0.1
112. N70K  0.002 ± 0.12
113. S79E  0.002 ± 0.056
114. N70D  0.009 ± 0.065
115. S79D  0.079 ± 0.065
116. S75C  0.099 ± 0.05
117. V73I  0.147 ± 0.059
118. S79P  0.16 ± 0.069
119. V74E  0.195 ± 0.099
120. V74Y  0.236 ± 0.05
